Assay results from patent US20220256794A1, “TERPENE SYNTHASES AND TRANSPORTERS” (The State of Israel, Ministry of Agriculture & Rural …, priority 2019, published 2022).

Legend:
[1] = test system: yeast cells; experiment: Yeast growth (turbidity A600) in the presence of CBD; format: cell-based, Saccharomyces cerevisiae (strain Y1HGold); details: 0.5 mM CBD, 7-12 hours, FIG. 2
Method: The genes were expressed in yeast and tobacco. For yeast, the ABC and PTR Transporter genes were synthesized by the TWIST Co, cloned and expressed (individually) in the yeast expression vector pESC-URA (Agilent Technologies) for expression under the yeast native gal-10 promoter. Competent Saccharomyces cerevisiae (strain Y1HGold, CloneTech) cells were prepared, transformed by each of the resulting vector and selected on yeast synthetic media lacking Uracil as previously described [GietzR. D., Methods Mol. Biol. (2014) 1205:1-12].
An alternative method is to measure the yeast growth as a function of turbidity. Transformed yeast cells were grown on URA-glucose broth at 30° C. at 200 RPM, and after 24 hours 100 μl was used to inoculate 5 ml of URA-galactose broth in the same conditions till O.D.600 of 1.5. The yeast was further diluted to OD600=0.05 with 10 ml URA-galactose, and divided into two 5 ml aliquots into separate 50 ml falcon tubes. The first falcon (control) was added 78 μl acetonitrile (the solvent that the CBD was dissolved in), and the second one was added 78 μl CBD solution in acetonitrile (final CBD concentration=0.5 mM). […]

[2] = Terpene synthase activity assay with GPP; format: biochemical; details: TPS expressed in E. coli; 10 μM GPP, overnight at 30° C., SPME GC-MS
Method: Putative terpene synthase genes were synthesized by the TWIST Co., and cloned into Novagen pET-28a(+) with a 6×His tag at its' N-terminus. The recombinant plasmid was then sequenced for authentication and transformed into BL21(DE3) pLysS and pLysE strains of E. coli (Agilent Technologies) for heterologous expression. An overnight culture was used to inoculate a 20-200 mL culture, induced with 0.1 mM IPTG at an OD 600 nm >0,8 for initiation of recombinant protein translation then incubated at 18° C. and 250 RPM overnight. The cells were collected by centrifugation and the recombinant enzymes were extracted either as a crude extract or purified on a Ni-NTA agarose resin as previously described [Gonda I. et al., The Plant Journal (2013) 61, 458-472].
To determine the terpene synthase catalytic activity, reaction mixtures containing 100 μl of protein extract or purified protein were incubated overnight at 30° C. with either 10 μM geranyl diphosphate (GPP) or farnesyl diphosphate (FPP), in a final volume of 200 μl using a buffer containing 50 mM bis-tris, pH 6.9, 1 mM DTT, 10% (v/v) glycerol, 0.1 mM of MnCl2 and 10 mM of MgCl2. The volatiles produced were extracted by solid-phase microextraction (SPME) according to the methodology previously described [Iijima Y. et al., Plant Physiol (2004) 136: 3724-3736]. As controls, reactions were carried out without the cofactors MnCl2 and MgCl2, or protein extracts were heat inactivated by incubation at 100° C. for 5 minutes, or a short peptide product of an empty pET100 vector was utilized.
For solid-phase microextraction (SPME) analysis, a 57298-U SPME fiber assembly Divinylbenzene/Carboxen/Polydimethylsiloxane (DVB/CAR/PDMS, Supelco) needle size 23 ga, StableFlex, was used with an autosampler and analyzed by GC-MS as previously described [Davidovich-Rikanati R. et al., Nature Biotech (2007) 25:899-901; Davidovich-Rikanati R. et al., Plant J (2008) 56:228-238]. The SPME fiber were adsorbed for 30 min. by automatic HS-SPME at 50° C. followed by injection of the fiber into a GC-MS injection port for 5 min. (splitless), for desorption of the volatiles. Chiral separation was conducted on a Restek Rt™-bDEXsm column (30 m length 0.25 mm i.d., 0.25 μm film thickness, 2,3-di-O-methyl-6-O-tert-butyl dimethylsilyl beta cyclodextrin added into 14% cyanopropylphenyl/86% dimethyl polysiloxane). Helium (0.8 ml min-1) was used as a carrier gas with splitless injection. The injector temperature was 250° C., and the detector temperature was 230° C. The following conditions were used: initial temperature 40° C. for 5 min., followed by a ramp of 2° C./min. to 110° C., and 10° C./min up to 230° C. (5 min.). A quadrupole mass detector with electron ionization at 70 eV was used to acquire the MS data in the range of 41 to 350 m/z. The identification of the volatiles was assigned by comparison spectral data with the W10N11 and HPCH2205 GC-MS libraries and with authentic standard when available.

Row | Molecule | inhibition of yeast growth in response to CBD, transporter-expressing yeast vs control yeast [1] | Monoterpenes produced with GPP [2]
1 | T-AG2575-2: Cannabis ABC-G transporter gene product, amino acid SEQ ID NO: 56 (protein, ABC+PTR Transporter amino acid sequence (of the 12 identified gene products)) MEVGDLYRAGNSLRNISLRSSTSSVWRGNNNNNNNKDEYFSKSRREDDINDEEALTWAALEKLPTYDRLRKGILTTSKGETTEVDVINLGFKQRKDLLQRLVNVADEDNESFLLKLKQRIQTVGIDLPTIEVRFENVKVEADVHVGSRALPSFINFCINIIEMLVSFLPILKSKKKHVTILDDVSGAIKPGRLTLLLGPPSSGKTTLLLTLAGKLASELKFSGRVTYNGHEMNEFIPQRTAAYISQHDVHIGEMTVRETLSFSARCQGVGTRYEMLAELSRREKEANIKPDPDIDIFMKATSTEGQKSSVVTDYVLKILGLEVCADTVVGDEMLRGISGGQRKRVTTGEMLVGPSGVLFMDEISTGLDSSTTYQIVNSLKQYVHIFNGTNVISLLQPAPETYDLFDDIILLSDGHIVYQGPRENVLEFFEFTGFKCPERKAIADFLQEVTSKKDQAQYWTRGDEAYRFVSAKEFVEAFKSFHVGQKIREYLSTPFDKTKSHPAALTTKNFGLNKMELLKACMSREYLIMKRNSFVHIFKIVQLSVMGLIHGTLFLRTKMHHRTLEDGTIYLGSLFFAALMIMFNGMSEIPMTIAKLPVFYKQRDLQFFPAWAYAVPSMLFKVPIAFLEVAVWIILTYYTTGLEPSVVRMFRLYFILVIVNQMASGLFRSIAALSRNMIIANTFGAFSLLLLFVLGGFVLSRDDINSGWIWAYWVTPLMYGQTGILVNEFRGSKWNKVTPNSTETLGIQVLKSKGFFTDSYWYWLGFGVLVAYTVLFNILYTLALNYLNSIEKSQALSNEDPENNDHEIQVGRETRTNEIQQTSSINNTGENQSKKKGMILPFEPHSITFNDVIYSVDMPQAMKNQGVVEDKLVLLKGVSGSFRPGVLTALMGISGAGKTTLMDVLAGRKTGGYIEGDIRISGYPKKQETFARISGYCEQNDIHSPHVTVYESLLYSAWLRLPTEVDSEKRKMFIEEVMELVELTPLRQALVGLPGVSGLSTEQRKRLTIAVELVANPSIIFMDEPTSGLDARAAAIVMRTVRNTVDTGRTVVCTIHQPSIDIFEAFDELFLMKRGGEEIYVGPLGRHSCHLINYFEAIEGVSKIKNGYNPGTWMLEVSSSAQEIALGVDFANIYKNSELCKRNKDLIKELSSPAPGSKDLYFPTQFSRSLNTQCIACLWKQRQSYWRNPLYTAVRFMFTTFIALIFGTVFWDLGSKRSNIQDLSNALGSMYCAVLFIGIQNASSVQPVVSVERSVFYREKAAGMYSAFPYSFGQLVVEIPYILCQSVVYCLIVYAMIGFEWTAIKFFWFLFFSFFSMLYFTFYGMMAVGITPNNHIASIVSSAFYSVWNLFSGFIIPRTRMPVWWKWYYWGCPVSWTLYGLLVSQYGDVDDVINAVTGETVKQYLRSYLGYKHDFIGVVAVVNVLFALLFGSIFAFSVKILNFQNR | reduced inhibition of growth | –
2 | 795-1: Cannabis terpene synthase gene product, amino acid SEQ ID NO: 18 (protein, Terpene Synthase Gene Amino acid sequence of the 45 identified gene products) MITGVISSSTTIFKEQPEAIVRRSGNYKPTLWDAHFFKSLQVIYTEESYGKRINELKEDVRRILEKEAENPLVKLEQINDLSRLGISYHFEDQIKTILNLTFNNNNALWKKDNLYATALHFKLLRQYGFNPVSSEVFNAFKDQKKEFKESLSKDVKGMVCLYEASFYSFRGEPILDEARDFTTKHLKQYLMTRQCQTKSVDHDDDHDLVKLVEHALDLPLHWRLPRLEARWFIDMYAERNYDMNPTFLDFAKLDYNFVQSAYQKELKYISRWWSGSRLTERLPFARDRVVEIFYSAVALKYEAEFGFVRTVMTKIGLLLTLMDDIYDVYGTLDELQLFLGAIERWNINELDQLPDYMKILFVAFYNNVNEISYYVLKENGIHIIKYLKKALGDLCKCYMEEAKWFHSGHIPSLEEFIENGWKSITIPLCLIYHYCLITTSITEQDMEHLLQYPTILRVSGTVFRFIDDLGTSSDELERGDNPSSIQCYMREKGVSENESREHIWNLISEGWKEINEVKASNSPYSQVFIESAIDFVRGAMEMYHKGDGFGTNQDRYLKTKVVNMFFDPIPI | – | geraniol
3 | 796-3: Cannabis terpene synthase gene product, amino acid SEQ ID NO: 23 (protein, Terpene Synthase Gene Amino acid sequence of the 45 identified gene products) MDTQRKLQAEQLSCPTKSHELIFDHKSDHQRRSANYTPTIWKYDFLESLNNKYDSEEYKKRSEKLIEDVRHNIVETKDLKGMLELINTIRKLSLTYHFEDEVKKVLDKISSSNYYYNNKDIKDPRLVGDDLYLAALYFRLLRLHGYQVSQDIFVGYNSVDYKKGGGTHNITSTEVKVMIELLEASHVAFECEDTLTEAKALMEENLKIAFPDNCNKYIPKHEVVHALELPSHWRVQWFDVKWQIEAYRQHGDPDTNTTTTTSLLVDLAKLNFNIIQATLQKDLRELSSWWKNVGLSEKLEFARDRLVESFMCTVGLAFQPEYKSLRKCLTKVVNFILIVDDVYDVYGSLEELRHFTNAVNRWDVRETEELPDCMKICFQALYHTTCEIASEIETKNGCKLVLPNLKGAWTDFCKSLLMEAEWYHKGYIPSLEEYLSNAWISSSGPLLLLHSYLAMPNQTNTASSLDISKDLVYNISLIIRLCNDLGTSAAEQERGDAASSIVCYMQETKSSEEEARKHIREMIRKTWKKINKTCFSTCGSSSLSLSFIDIALNTARVAHSLYQSGDAFSAQHTDYKTHILSLLVHPLIPNK | – | geraniol
4 | 792-7: Cannabis terpene synthase gene product, amino acid SEQ ID NO: 12 (protein, Terpene Synthase Gene Amino acid sequence of the 45 identified gene products) MSPCEATIDEKRPNMPKFTPTIWGDYFMSSASNHHHSSLMETMENNNKESYEKIIEMKEQVKNKLLHGLHPLENPLETLEYIDDIQRLGLSYYFENEIEQNLEQFHNNYQNLIDFGDNNLYADALCFRLLRQQGYNIACDIFDKYKNEKGKFKESISSDIRGMLNLYEAAQMRVHGEKILDEALIFTTTHLESSVKTCQLSSPYLDLVKHALMHPIRKSLQRREARLYISLYHQLPSHEEILLTLAKLDFNLLQKLHQKELSYITRWWKEFDYKSKHSFIKDRIVECYFWVYGVFFEAETSQIRLIITKLIAILTIIDDAYDSFGTLEELEPFTQAIERWDICAIDTLPEYMKIFYMKLLEIYNEIEQFSKERSYCPSYAKKGVQSLIRAYFKEAKWLHTKYIPTLDEYMPVGVDSAGSFMLISMVFIGMGDIVTKHSMDWIFSNPQPKIIQTMAIVGRVMNDIGYHKSERKKSSGEIVASTVECYMKQYGVTGEEAIEKLSEQVKDSWKDLNEDLLNPITIPRPLLMQVLKLVRVNHEIYREGDGFTQPTLLKNLIHSLIINPIDF | – | beta-myrcene/geraniol
